Experiment: soluble on expression in E. coli; label from the status in PepcDB or PDB records

| Sequence | soluble on expression in E. coli |
| --- | --- |
| MSLQLDLLPPQDRGQVHSVFVVVPRFNLTTLITMIETMRIGNYLSSERLFSWEVTSFDGLNLGASNGVRVHLDVEPDQTAPADQVFVLASWGGEHYQNKALASWLRKRARQGERICAVELGCYLVARAGLMDGKEATTHWSWINGFQEKFDQISVVEQLFTIDGRILTCAGGMAGVDLMLRLIEQSHGAGFSGEIADQMLHNEGHHHHHH | soluble |
| HHHHHHSSGLVPRGSHMSVKKAGVLGATGSVGQRFILLLSKHPEFEIHALGASSRSAGKKYKDAASWKQTETLPETEQDIVVQECKPEGNFLECDVVFSGLDADVAGDIEKSFVEAGLAVVSNAKNYRREKDVPLVVPIVNPEHIDVVENKVKQAVSKGGKKPGFIICISNCSTAGLVAPLKPLVEKFGPIDALTTTTLQAISGAGFSPGVSGMDILDNIVPYISGEEDKLEWETKKILGGVNAEGTEFVPIPESEMKVSAQCNRVPVIDGHTECISLRFANRPAPSVEDVKQCLREYECAASKLGCHSAPKQTIHVLDQPDRPQPRLDRDRDSGYGVSVGRIREDSLLDFKMVVLSHNTIIGAAGAGILIAEILKAKNII | soluble |
| MSLSKNRNIIEGRILSFDKSPFSKDFDLSSLKIDKKRIFIIDGIIESIEPVNFINPEFQDIEIIDYGDHLISAGFVDAHVHYPQTAIVASWGKRLIDWLNTYTFPEEMRFSNLNYASEIAARYIDFSLSNGTTTMASYCTIHPESVDAFFKSAAVKNMCVVGGKTCMDRNAPGDLCDSAKSAYDDSKALLQKWHHKGRAHYAITPRFSPTSTPDQLLALGSLWSEFPGCLMQTHLSEQVDEIDWVRKLFPNARDYLDTYETFGLLGERGVYGHAIHLEAREIDRLSEVGASLIHCPTSNTFIGSGLFNMEDLTSRSLKVGLASDIGGGSSFSMLRTMAGAYEVAQLRGLALHPSQLMWLATQGSAKALHLDNQIGNIAPGMAADLVVLDLSSTPTISQRSARANDVWEELFPTIMMGDDRAIAATYVAGKKIEGHHHHHH | soluble |
| MGSDKIHHHHHHMSTNHGANLYSLSSKYGFSKEEFMDFSSNINPFGTSSLAKQYIVNNIDMVSMYPDPDYIDLKTSISNYCKCSIDNIVLGSGATELISSFIHTINPKQALLLSPAYSEYEKELSKINCSIEKYFAKEEDNFHINLENLIKTINAKDYDLVVICNPSNPTGFAFTKVEVREILKNTDSFLMIDETYVEFTDTDTYSCTQLVDDYSNLFVIRGTSKFFSTPGIRLGYGLISNTNVKNEINKNLDLWNINIIASKMGEIMFSDLDFISNTISLMNTERDYLLKELKNIKSLDIYNTKGNFILCKIKTKELTAKSLREQLLPQKIIIRDCCSFKGLDEYFFRVCILKPNENKLLISSLKSIFK | not soluble |
| MEFDPVKINTSSIDHVTILQYIDEPNDIRLTVCIIRNINNITYYINITKINPHLANRFRAWKKRIAGRDYMTNLSRDTGIQQSKLTETIRNCQKNKNIYGLYIHYNLVINVVIDWITDVIVQSILRGLVNWYIANNTYTPNTPNNTTTISELDIIKILDKYEDMYRVSKEKECGICYEVVYSKRLENDRYFGLLDSCNHIFCITCINIWHRTRRETGALDNCPICRTRFRKITMSKFYKLVN | not soluble |
| MNFPWRDGNRVELLINGEEYFPRLFQCIAEARREILLETFIIFEDEVGRQLQEALSAAAERGVEVQVTVDGYGTASLSPDYLARLTASGVRVHLFDPRPRLLGMRTNLFRRLHRKLVVIDRRQAFVGGINYGEDHLVRRGNMAKQDYAVRVEGPVVRDIRQACLALLEPDADYPPLRPSGAGQPARVRLVIRDNDQSSDDIEREYLQAIRQARRRLLIANAYFFPGYRLLRELRDAARRGVRVDLVLQGMPDMPLVRLCSRLLYDYLLREGVRIHEYCQRPLHGKVAVIDDDWSTIGSSNLDPLSLSLNLEANLVIRDVAFNGQLYQHLRELARRHCRRISRRHARRGYWWRAPLIFLGFHFSRHFPAIAGWVPAHLPRLKSLEPRPSRRWQERQGQRGNP | not soluble |
| MGSDKIHHHHHHMRDMCSISGIIVKDNQISAKYSIDMMKILKHRGRDNSGLLLDDEVIYFNDFEDVEDLEEEMIGNLSLAHNRLAIVGRYGVQPIPNEDETIWLVCNGEIYNYIELREYLKQNHEFRTDSDNEVIIHLYEEEKLEELDGDYAFAIYDKSKNVVRLARDMFGVKPLFYVDRDKYFAFASERKALWHLLINIDGCERDLDELNSKIKTLKPNSQLIYYLDDNRFEIIEGFKKLELNYMKERSYEEAKEYLDRALKNSVLKRVRGLDKVGIICSGGVDSSLIAKLASLYCEVILYAVGTENSEDLIYAERLAKDLNLKLRKKIISEEEYEEYVFKVAKAIDEVDLMKIGVGIPIYVASEMANEDGLKVVLSGQGADELFGGYARHERIYRERGEEELKKELLKDVYNLYKVNLERDDHCTMANGVELRVPFLDEEVVEIALSIPIEYKMSELSNRPYAESNISLKSEPINGLKNTNLNIKCVRSVRKKILRDVASQYLPDYIAYRPKKAAQYGSGGEKMIYKVAKKYGFSKKRINEFLDMLKRKIVSEF | not soluble |
| MGHHHHHHSHSIKPSTNLVFAKVLEKTRHPNANHLNLVKVKANQKVYEIVCGANNFSVHNWVVLAKLNAELANGLKITPRELRGYVSNGMLCAYSEINPQATSFLTSTDLDGILVLDDNYDHYKTPNQIFNLDDVILDLSIPSNRNDLNGYFWIAKELCAYFDFEYVVDATINHRPHKEIIDVRI | not soluble |
| AEDRSLQAEPWFFGAIKRADAEKQLLYSENQTGAFLIRESESQKGDFSLSVLDEGVVKHYRIRRLDEGGFFLTRRKVFSTLNEFVNYYTTTSDGLCVKLEKPCLKIQV | soluble |
| MEERPSETNSNVDSSAQPSVAQLAGRFREHAAVARETPASKPTRRKPPCSLPLFPPKVELGQNGEEKSPSGASHPPKIKVKSSPLIEKLQANLAFDPAALLPGASPKSPGLKAIISPFHSPPSTPSSPGIRSHPSEAEEVPVSFDQPPEGTHLPSYNKVRTRGSIKRRPPSRRFRRSQSDCGDFRDYRAVEPSQENGAREENGDDVFPSKSKDPGSPQLNQEAMADGVEGTPRSAEKPRRRNTCNSTEKPEELVRTPEEANAGEKVGQNPDTASQGHPEVQAPSQTGSPEAENGCGSPREETAPGEHTDTGKATEGTASEERVADEDRLGQKSPDANMPEEEGVVREKAPQTSSGKAEGTTIAEPDTKQKEEAPLEPSCSPGADHAAGEITSEIQNEKAVSMDDIPIEDTRM | not soluble |
| MAHHHHHHMDLIQWPLPYQDELLNFYIFNDSKFVGGQNRWNLFKKKVMHHNIHVISNCYCQISLLRLSQLLNASVDDSESFLSELVSNKILNAKIDRLHGIIKFGQKKTPEVLLNNWSSQIHQILNLLEESSHLIQKERMLHEAKLKRMQLESKNMSL | not soluble |
| MGSDKIHHHHHHMTMDAATAVSDQGKQDLPAGDGATLSLKDRIARDLGQRILAGIYAQHAVLPTEAELCVIYGASRTALRDALLTLSAKGLIEARKRAGTRVRVSSEWNRLDAQVLEWMRDIEPDLDFVRGLIEARLVIEPAAAQLAAKMATSGDLAVIEAAYEAMRIAPEDDLAACLDADVRFHTAILRASRNPVFANLGNMLAAALSFSFRLTTSATANYQQTLSAHGDVLEAIRMRRVDDAHDQMKALIGIASNDLLAVARKGRHQQPVPTASADPI | not soluble |
| THSEEEIKIIASESQKGGVLDEFETEIIRNAVDFSDTVAKEIMTPRKDMICLNKQKSYEENMQIICEHKHTRFPYIDGSKDTILGMIHIRDIIQNELNHKSQNLDTFVKPLILVPENISISKVLVMMNKERSHTALVVDEYGGTAGILTMEDIMEEIIGEIKSEHEEDSYKKLA | soluble |
| YDQSSVLIVGDVMLDRYWGGPTSRISPEAPVPVVKVEKIEERPGGAANVAMNIAALGGDAHLVGLVGEDEPAQALTTTLESLKVHCDFVALPEFPTITKLRVMSRGQQLIRLDFEDSFHDVAAEPIISRMQQALSSVKAVVLSDYAKGALEHVQLMIQEARKVNVPVFIDPKGADFERYRGATLLTPNMLEFETVVGKVKDEDDLVAKGQQIIEEFDFEALLVTRSEHGMTLLRRNMEPLHLPTQAREVFDVTGAGDTVISVLAASVSTGKPLDEACALANAAAGVVVGKLGTSTLSTIELAEAIHG | not soluble |
